The values below come from IntAct's records for PubMed 31515488.

To fix the notation:
B1: Protein-associating with the carboxyl-terminal domain of ezrin (Homo sapiens), Q8IZE3 (parent)
chain: MGSENSALKSYTLREPPFTLPSGLAVYPAVLQDGKFASVFVYKRENEDKVNKAAKHLKTLRHPCLLRFLSCTVEADGIHLVTERVQPLEVALETLSSAEVCAGIYDILLALIFLHDRGHLTHNNVCLSSVFVSEDGHWKLGGMETVCKVSQATPEFLRSIQSIRDPASIPPEEMSPEFTTLPECHGHARDAFSFGTLVESLLTILNEQVSADVLSSFQQTLHSTLLNPIPKCRPALCTLLSHDFFRNDFLEVVNFLKSLTLKSEEEKTEFFKFLLDRVSCLSEELIASRLVPLLLNQLVFAEPVAVKSFLPYLLGPKKDHAQGETPCLLSPALFQSRVIPVLLQLFEVHEEHVRMVLLSHIEAYVEHFTQEQLKKVILPQVLLGLRDTSDSIVAITLHSLAVLVSLLGPEVVVGGERTKIFKRTAPSFTKNTDLSLEDSPMCVVCSHHSQISPILENPFSSIFPKCFFSGSTPINSKKHIQRDYYNTLLQTGDPFSQPIKFPINGLSDVKNTSEDSENFPSSSKKSEEWPDWSEPEEPENQTVNIQIWPREPCDDVKSQCTTLDVEESSWDDCEPSSLDTKVNPGGGITATKPVTSGEQKPIPALLSLTEESMPWKSSLPQKISLVQRGDDADQIEPPKVSSQERPLKVPSELGLGEEFTIQVKKKPVKDPEMDWFADMIPEIKPSAAFLILPELRTEMVPKKDDVSPVMQFSSKFAAAEITEGEAEGWEEEGELNWEDNNW
partner: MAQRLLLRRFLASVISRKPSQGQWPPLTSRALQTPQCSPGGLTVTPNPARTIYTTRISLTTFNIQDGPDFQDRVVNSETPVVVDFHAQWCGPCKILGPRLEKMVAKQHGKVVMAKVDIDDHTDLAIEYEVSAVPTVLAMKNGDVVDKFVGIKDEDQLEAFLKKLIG
B2: U3 small nucleolar RNA-associated protein 14 homolog A (Homo sapiens), Q9BVJ6 (parent)
chain: MTANRLAESLLALSQQEELADLPKDYLLSESEDEGDNDGERKHQKLLEAISSLDGKNRRKLAERSEASLKVSEFNVSSEGSGEKLVLADLLEPVKTSSSLATVKKQLSRVKSKKTVELPLNKEEIERIHREVAFNKTAQVLSKWDPVVLKNRQAEQLVFPLEKEEPAIAPIEHVLSGWKARTPLEQEIFNLLHKNKQPVTDPLLTPVEKASLRAMSLEEAKMRRAELQRARALQSYYEAKARREKKIKSKKYHKVVKKGKAKKALKEFEQLRKVNPAAALEELEKIEKARMMERMSLKHQNSGKWAKSKAIMAKYDLEARQAMQEQLSKNKELTQKLQVASESEEEEGGTEDVEELLVPDVVNEVQMNADGPNPWMLRSCTSDTKEAATQEDPEQLPELEAHGVSESEGEERPVAEEEILLREFEERRSLRKRSELSQDAEPAGSQETKDSGSQEVLSELRVLSQKLKENHQSRKQKASSEGTIPQVQREEPAPEEEEPLLLQRPERVQTLEELEELGKEECFQNKELPRPVLEGQQSERTPNNRPDAPKEKKKKEQMIDLQNLLTTQSPSVKSLAVPTIEELEDEEERNHRQMIKEAFAGDDVIRDFLKEKREAVEASKPKDVDLTLPGWGEWGGVGLKPSAKKRRRFLIKAPEGPPRKDKNLPNVIINEKRNIHAAAHQVRVLPYPFTHHWQFERTIQTPIGSTWNTQRAFQKLTTPKVVTKPGHIINPIKAEDVGYRSSSRSDLSVIQRNPKRITTRHKKQLKKCSVD
partner: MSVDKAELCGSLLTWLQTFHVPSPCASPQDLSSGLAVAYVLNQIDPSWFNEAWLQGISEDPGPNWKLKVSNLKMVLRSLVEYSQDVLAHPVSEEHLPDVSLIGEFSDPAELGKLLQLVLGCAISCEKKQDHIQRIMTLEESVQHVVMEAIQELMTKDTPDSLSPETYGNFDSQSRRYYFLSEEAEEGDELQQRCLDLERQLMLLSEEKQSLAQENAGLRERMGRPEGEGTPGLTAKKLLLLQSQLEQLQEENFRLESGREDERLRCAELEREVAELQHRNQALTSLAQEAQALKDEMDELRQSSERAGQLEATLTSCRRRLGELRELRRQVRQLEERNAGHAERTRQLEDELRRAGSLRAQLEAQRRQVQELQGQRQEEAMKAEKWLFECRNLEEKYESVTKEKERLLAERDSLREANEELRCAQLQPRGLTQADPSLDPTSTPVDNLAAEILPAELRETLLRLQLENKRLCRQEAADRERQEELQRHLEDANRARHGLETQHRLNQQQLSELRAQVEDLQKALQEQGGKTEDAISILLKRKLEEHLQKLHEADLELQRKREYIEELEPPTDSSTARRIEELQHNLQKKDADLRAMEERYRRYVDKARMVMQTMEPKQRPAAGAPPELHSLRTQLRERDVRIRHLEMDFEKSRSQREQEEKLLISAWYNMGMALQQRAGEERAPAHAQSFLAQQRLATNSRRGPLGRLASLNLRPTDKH
B3: Vacuolar protein sorting-associated protein 28 homolog (Homo sapiens), Q9UK41-2 (parent)
chain: MFHGIPATPGIGAPGNKPELYEEVKLYKNAREREKYDNMAELFAVVKTMQALEKAYIKDCVSPSEYTAACSRLLVQYKAAFRQVQGSEISSIDEFCRKFRLDCPLAMERIKEDRPITIKDDKGNLNRCIADVVSLFITVMDKLRLEIRAMDEIQPDLRELMETMHRMSHLPPDFEGRQTVSQWWVSLPARQSPAVPETLPARRSPAVPLRPSAPTCPVLHSQAADPERHVGVR
B4: E3 ubiquitin-protein ligase MARCHF5 (Homo sapiens), Q9NX47 (parent)
chain: MPDQALQQMLDRSCWVCFATDEDDRTAEWVRPCRCRGSTKWVHQACLQRWVDEKQRGNSTARVACPQCNAEYLIVFPKLGPVVYVLDLADRLISKACPFAAAGIMVGSIYWTAVTYGAVTVMQVVGHKEGLDVMERADPLFLLIGLPTIPVMLILGKMIRWEDYVLRLWRKYSNKLQILNSIFPGIGCPVPRIPAEANPLADHVSATRILCGALVFPTIATIVGKLMFSSVNSNLQRTILGGIAFVAIKGAFKVYFKQQQYLRQAHRKILNYPEQEEA
B5: Dynein light chain 2, cytoplasmic (Homo sapiens), Q96FJ2 (parent)
chain: MSDRKAVIKNADMSEDMQQDAVDCATQAMEKYNIEKDIAAYIKKEFDKKYNPTWHCIVGRNFGSYVTHETKHFIYFYLGQVAILLFKSG
partner: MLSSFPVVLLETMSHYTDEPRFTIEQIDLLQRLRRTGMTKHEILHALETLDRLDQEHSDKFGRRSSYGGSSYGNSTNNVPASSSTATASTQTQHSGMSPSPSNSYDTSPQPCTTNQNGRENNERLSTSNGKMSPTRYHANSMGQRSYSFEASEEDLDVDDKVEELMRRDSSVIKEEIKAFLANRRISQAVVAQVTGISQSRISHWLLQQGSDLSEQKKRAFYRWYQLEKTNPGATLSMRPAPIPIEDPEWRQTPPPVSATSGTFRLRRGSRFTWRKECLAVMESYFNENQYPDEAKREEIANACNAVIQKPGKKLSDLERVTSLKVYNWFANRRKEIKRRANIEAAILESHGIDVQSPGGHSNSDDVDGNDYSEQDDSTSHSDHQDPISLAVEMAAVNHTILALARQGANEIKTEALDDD
B6: Ribosome quality control complex subunit TCF25 (Homo sapiens), Q9BQ70 (parent)
chain: MSRRALRRLRGEQRGQEPLGPGALHFDLRDDDDAEEEGPKRELGVRRPGGAGKEGVRVNNRFELINIDDLEDDPVVNGERSGCALTDAVAPGNKGRGQRGNTESKTDGDDTETVPSEQSHASGKLRKKKKKQKNKKSSTGEASENGLEDIDRILERIEDSTGLNRPGPAPLSSRKHVLYVEHRHLNPDTELKRYFGARAILGEQRPRQRQRVYPKCTWLTTPKSTWPRYSKPGLSMRLLESKKGLSFFAFEHSEEYQQAQHKFLVAVESMEPNNIVVLLQTSPYHVDSLLQLSDACRFQEDQEMARDLVERALYSMECAFHPLFSLTSGACRLDYRRPENRSFYLALYKQMSFLEKRGCPRTALEYCKLILSLEPDEDPLCMLLLIDHLALRARNYEYLIRLFQEWEAHRNLSQLPNFAFSVPLAYFLLSQQTDLPECEQSSARQKASLLIQQALTMFPGVLLPLLESCSVRPDASVSSHRFFGPNAEISQPPALSQLVNLYLGRSHFLWKEPATMSWLEENVHEVLQAVDAGDPAVEACENRRKVLYQRAPRNIHRHVILSEIKEAVAALPPDVTTQSVMGFDPLPPSDTIYSYVRPERLSPISHGNTIALFFRSLLPNYTMEGERPEEGVAGGLNRNQGLNRLMLAVRDMMANFHLNDLEAPHEDDAEGEGEWD
B7: Ankyrin repeat and BTB/POZ domain-containing protein 1 (Homo sapiens), Q969K4 (parent)
chain: MDTSDLFASCRKGDVGRVRYLLEQRDVEVNVRDKWDSTPLYYACLCGHEELVLYLLANGARCEANTFDGERCLYGALSDPIRRALRDYKQVTASCRRRDYYDDFLQRLLEQGIHSDVVFVVHGKPFRVHRCVLGARSAYFANMLDTKWKGKSVVVLRHPLINPVAFGALLQYLYTGRLDIGVEHVSDCERLAKQCQLWDLLSDLEAKCEKVSEFVASKPGTCVKVLTIEPPPADPRLREDMALLADCALPPELRGDLWELPFPCPDGFNSCPDICFRVAGCSFLCHKAFFCGRSDYFRALLDDHFRESEEPATSGGPPAVTLHGISPDVFTHVLYYMYSDHTELSPEAAYDVLSVADMYLLPGLKRLCGRSLAQMLDEDTVVGVWRVAKLFRLARLEDQCTEYMAKVIEKLVEREDFVEAVKEEAAAVAARQETDSIPLVDDIRFHVASTVQTYSAIEEAQQRLRALEDLLVSIGLDC
B8: Angiomotin (Homo sapiens), Q4VCS5 (parent)
chain: MRNSEEQPSGGTTVLQRLLQEQLRYGNPSENRSLLAIHQQATGNGPPFPSGSGNPGPQSDVLSPQDHHQQLVAHAARQEPQGQEIQSENLIMEKQLSPRMQNNEELPTYEEAKVQSQYFRGQQHASVGAAFYVTGVTNQKMRTEGRPSVQRLNPGKMHQDEGLRDLKQGHVRSLSERLMQMSLATSGVKAHPPVTSAPLSPPQPNDLYKNPTSSSEFYKAQGPLPNQHSLKGMEHRGPPPEYPFKGMPPQSVVCKPQEPGHFYSEHRLNQPGRTEGQLMRYQHPPEYGAARPAQDISLPLSARNSQPHSPTSSLTSGGSLPLLQSPPSTRLSPARHPLVPNQGDHSAHLPRPQQHFLPNQAHQGDHYRLSQPGLSQQQQQQQQQHHHHHHHQQQQQQQPQQQPGEAYSAMPRAQPSSASYQPVPADPFAIVSRAQQMVEILSDENRNLRQELEGCYEKVARLQKVETEIQRVSEAYENLVKSSSKREALEKAMRNKLEGEIRRMHDFNRDLRERLETANKQLAEKEYEGSEDTRKTISQLFAKNKESQREKEKLEAELATARSTNEDQRRHIEIRDQALSNAQAKVVKLEEELKKKQVYVDKVEKMQQALVQLQAACEKREQLEHRLRTRLERELESLRIQQRQGNCQPTNVSEYNAAALMELLREKEERILALEADMTKWEQKYLEENVMRHFALDAAATVAAQRDTTVISHSPNTSYDTALEARIQKEEEEILMANKRCLDMEGRIKTLHAQIIEKDAMIKVLQQRSRKEPSKTEQLSCMRPAKSLMSISNAGSGLLSHSSTLTGSPIMEEKRDDKSWKGSLGILLGGDYRAEYVPSTPSPVPPSTPLLSAHSKTGSRDCSTQTERGTESNKTAAVAPISVPAPVAAAATAAAITATAATITTTMVAAAPVAVAAAAAPAAAAAPSPATAAATAAAVSPAAAGQIPAAASVASAAAVAPSAAAAAAVQVAPAAPAPVPAPALVPVPAPAAAQASAPAQTQAPTSAPAVAPTPAPTPTPAVAQAEVPASPATGPGPHRLSIPSLTCNPDKTDGPVFHSNTLERKTPIQILGQEPDAEMVEYLI

Variants of B1 are the subject of one experiment. Conditions: with thiom_human TXN2, Q99757.
Turning to Q621R, the “effect of a mutation on the interaction” value was “with no effect”.

The variants in the next experiment derive from B2. Conditions: with hook2_human HOOK2, Q96ED9.
Turning to V256M, the “effect of a mutation on the interaction” value is “with no effect”.

The next experiment covers variants of B3. The settings on record: with ts101_human TSG101, Q99816.
In the case of R203W, the “effect of a mutation on the interaction” value is listed as “with no effect”.

Another experiment covers variants of B4. The settings on record: with ube2w_human UBE2W.
With D202N, the “effect of a mutation on the interaction” value is recorded as “with no effect”. In the case of T20A, the “effect of a mutation on the interaction” value was “with no effect”.

Variants of B5 are the subject of another experiment. The settings on record: with hmbx1_human HMBOX1, Q6NT76.
E30D: the “effect of a mutation on the interaction” value was “with no effect”.

The variants in a further experiment derive from B6. Conditions: with sat1_human SAT1, P21673.
Sequence of sat1_human SAT1, P21673 (P21673 whole entry): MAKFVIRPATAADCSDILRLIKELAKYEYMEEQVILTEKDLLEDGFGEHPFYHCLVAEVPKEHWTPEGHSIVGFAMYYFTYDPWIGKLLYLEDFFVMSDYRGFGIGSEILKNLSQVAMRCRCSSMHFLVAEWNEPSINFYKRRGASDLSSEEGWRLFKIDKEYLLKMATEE
Turning to V526A, the “effect of a mutation on the interaction” value is reported as “with no effect”.

Variants of B7 are the subject of a further experiment. Conditions: with ef1d_human EEF1D.
In the case of R386H, the “effect of a mutation on the interaction” value is given as “with no effect”.

In another experiment the parent is B7. Conditions: with ef1a2_human EEF1A2, Q05639.
Sequence of ef1a2_human EEF1A2, Q05639 (Q05639 whole entry): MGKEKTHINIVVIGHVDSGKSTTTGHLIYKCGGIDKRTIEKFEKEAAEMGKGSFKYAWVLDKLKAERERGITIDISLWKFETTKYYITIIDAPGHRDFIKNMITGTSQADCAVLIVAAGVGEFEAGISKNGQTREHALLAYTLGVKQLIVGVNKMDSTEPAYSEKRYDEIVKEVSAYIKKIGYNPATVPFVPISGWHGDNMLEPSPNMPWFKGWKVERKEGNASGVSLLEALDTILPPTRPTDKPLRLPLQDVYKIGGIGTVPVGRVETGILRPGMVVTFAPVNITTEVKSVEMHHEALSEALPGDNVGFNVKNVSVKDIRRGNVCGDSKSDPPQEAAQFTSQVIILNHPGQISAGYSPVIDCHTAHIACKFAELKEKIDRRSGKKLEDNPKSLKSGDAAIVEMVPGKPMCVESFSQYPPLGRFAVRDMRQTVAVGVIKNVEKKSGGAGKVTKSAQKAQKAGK
For R386H, the “effect of a mutation on the interaction” value is reported as “with no effect”.

Variants of B7 are the subject of the next experiment. Conditions: with cul3_human CUL3, Q13618.
Regarding R386H, the “effect of a mutation on the interaction” value is on record as “with no effect”.

The variants in a further experiment derive from B8. The settings on record: with maga4_human MAGEA4, P43358.
Sequence of maga4_human MAGEA4, P43358 (P43358 whole entry): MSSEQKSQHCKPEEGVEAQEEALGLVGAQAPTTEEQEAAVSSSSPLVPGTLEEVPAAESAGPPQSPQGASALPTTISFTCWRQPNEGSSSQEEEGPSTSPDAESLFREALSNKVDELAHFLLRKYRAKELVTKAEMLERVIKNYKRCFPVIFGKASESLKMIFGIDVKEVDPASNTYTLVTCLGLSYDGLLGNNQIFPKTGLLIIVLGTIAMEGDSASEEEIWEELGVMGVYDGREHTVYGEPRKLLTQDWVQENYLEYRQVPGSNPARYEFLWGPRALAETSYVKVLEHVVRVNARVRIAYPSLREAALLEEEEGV
Turning to T899A, the “effect of a mutation on the interaction” value is “with no effect”.
